# B1: Band 3 anion transport protein, P02730 (parent)
# chain: MEELQDDYEDMMEENLEQEEYEDPDIPESQMEEPAAHDTEATATDYHTTSHPGTHKVYVELQELVMDEKNQELRWMEAARWVQLEENLGENGAWGRPHLSHLTFWSLLELRRVFTKGTVLLDLQETSLAGVANQLLDRFIFEDQIRPQDREELLRALLLKHSHAGELEALGGVKPAVLTRSGDPSQPLLPQHSSLETQLFCEQGDGGTEGHSPSGILEKIPPDSEATLVLVGRADFLEQPVLGFVRLQEAAELEAVELPVPIRFLFVLLGPEAPHIDYTQLGRAAATLMSERVFRIDAYMAQSRGELLHSLEGFLDCSLVLPPTDAPSEQALLSLVPVQRELLRRRYQSSPAKPDSSFYKGLDLNGGPDDPLQQTGQLFGGLVRDIRRRYPYYLSDITDAFSPQVLAAVIFIYFAALSPAITFGGLLGEKTRNQMGVSELLISTAVQGILFALLGAQPLLVVGFSGPLLVFEEAFFSFCETNGLEYIVGRVWIGFWLILLVVLVVAFEGSFLVRFISRYTQEIFSFLISLIFIYETFSKLIKIFQDHPLQKTYNYNVLMVPKPQGPLPNTALLSLVLMAGTFFFAMMLRKFKNSSYFPGKLRRVIGDFGVPISILIMVLVDFFIQDTYTQKLSVPDGFKVSNSSARGWVIHPLGLRSEFPIWMMFASALPALLVFILIFLESQITTLIVSKPERKMVKGSGFHLDLLLVVGMGGVAALFGMPWLSATTVRSVTHANALTVMGKASTPGAAAQIQEVKEQRISGLLVAVLVGLSILMEPILSRIPLAVLFGIFLYMGVTSLSGIQLFDRILLLFKPPKYHPDVPYVKRVKTWRMHLFTGIQIICLAVLWVVKSTPASLALPFVLILTVPLRRVLLPLIFRNVELQCLDADDAKATFDEEEGRDEYDEVAMPV
# Variants of: B1
# Details: Homo sapiens, reversible: No, structure 1HYN, whole UniProt chain shown; for denaturant midpoint (higher = more stable): 24 °C, Urea, Fluorescence, sodium phosphate sodium borate 50 mM 50 mM, sodium chloride 70 mM; for Tm / change of melting temperature, mutant - wild type (higher = more stable): Thermal, sodium phosphate 10 mM
# [1] = pH 7.5, DSC, sodium chloride 50 mM
# [2] = pH 7, CD, sodium fluoride 50 mM
Variant,denaturant midpoint (higher = more stable) (pH 7) [M],Tm [1] [°C],"change of melting temperature, mutant - wild type (higher = more stable) [1] [°C]",Tm [2] [°C],"change of melting temperature, mutant - wild type (higher = more stable) [2] [°C]"
E40K,4.73,64.9,-1.3,–,–
K56E,–,66.5,0.3,67.7,-1.3
P327R,4.56,–,–,64,-5
G130R,4.85,65.5,-0.7,68.7,-0.3
